# Data as given in article PMC3068846.
# Biological target: DivL DHp and CA domains fused to YFP (Caulobacter crescentus)
# Assay: FRET or BRET
# Chain of DivL DHp and CA domains fused to YFP (Caulobacter crescentus) (Q9RQQ9 547-758): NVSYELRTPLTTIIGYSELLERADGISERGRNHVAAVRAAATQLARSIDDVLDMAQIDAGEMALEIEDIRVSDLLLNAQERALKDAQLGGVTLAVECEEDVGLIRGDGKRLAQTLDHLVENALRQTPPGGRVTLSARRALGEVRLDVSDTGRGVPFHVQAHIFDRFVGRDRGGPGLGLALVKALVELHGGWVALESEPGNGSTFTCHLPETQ
substance,measurement,value
DivK~P-CFP (DivK-CFP phosphorylated by DivJ and ATP) (natural protein),FRET efficiency relative to the longer version of DivL,85%
